A short description of the data set: yeast display, Sf9 membrane polyspecificity reagent, FACS + sequencing; frameworks hold sequencing errors. The procedure, abridged:
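Galactose induction of a Saccharomyces cerevisiae BJ5465 synthetic nanobody display library ran 36–48 hours. The cells were then stained for 1 hour at 4 °C with 10% biotinylated, detergent-solubilized Sf9 membrane reagent, pulled down on streptavidin microbeads and FACS-sorted into low and high (top ~1%) gates on expression and reagent-binding fluorescence. Labels for polyreactivity follow the gate of origin.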
“QVQLVESGGGLVQAGGSLRLSCAASGRIFVYYAMGWYRQAPGKERELVAAITYSVDSTYYADSVKGRFTISRDNAKNTVYLQMNSLKPEDTAVYYCATDVDLAYGYQYEYWGQGTQVTVSS”: the “polyreactivity (PSR sort gate)” value is “low polyreactivity”.

For the sequence “QVQLVESGGGLVQARGSLRLSCAASGSTLRRYAMGWYRQAPGKERELVAAISGSGDSTYYADSVKGRFTISRDNAKNTVYLQMNSLKPEDTAVYYCNAVYAFNGYDYWGQGSQVTVSS”, the “polyreactivity (PSR sort gate)” value was “low polyreactivity”.

As for “QFQLVESGGGLVQAGGSLRLSCAASGSTFFVYDMGWYRQATGKEGELVAAISISDGGTYYADSVKGRFTISRDNAKNTVYLQMKSLKPEDTAVYYCAADYSERYFPGYDYWGQGTLVTVSS”, the “polyreactivity (PSR sort gate)” value was “low polyreactivity”.

On to “QVQLVESGGGLVQAGGSLRLSCAASGSTFGYNAMGWYRQAPGKERELVAAISRGGRITYYADSVKGRFTISRDNAKNTVYLQMNSLKQEDTAVYNCAARVQWRGYGYYYWGQGTQVTVSS”, for which the “polyreactivity (PSR sort gate)” value is given as “high polyreactivity”.

Regarding “QVQLVESGGGLVQAGGSLRLSCAASGFIFLGYAMGWYRQAPGKERELVAAISSDSDTNYADSVKGRFTISRDNAKNTVYLQMNSLKPEDTAVYYCNADIDSYREMDYWGQGTQVTVSS”, the “polyreactivity (PSR sort gate)” value was “low polyreactivity”.

Consider “QDQLVESGPGLVQAGGSLRLSCAPSGRIFTVYAMGWYRQAPGKERELVAAIDWSDGSTYYADSVKGRFTISRDNAKNTVYLHMNSLKPEATAVYYCAAETYWVVEYDYWGQGTQVTVSS”, for which the “polyreactivity (PSR sort gate)” value is listed as “high polyreactivity”.

Regarding “QVQLVESGGGLVQAGGSLRLSCAASGFTFTSYAMGWYRQAPGKERELVAAINRSGGSTTYADSEKGRFTISRDNAKNTVYLQMNSLKPEDTAVYYCAKAFRGHYWGQGTQVTVSS”, the “polyreactivity (PSR sort gate)” value is reported as “high polyreactivity”.

“QLQLEESGGGLVQAGGSLRLSCAPSGSILNIYAMGWYRQAPGKERELVAVITSGTNTNYAVSVKGRFTISRDNAKNTVYLQMNSRKPEDTAVYYCNDEKYWWGYEYWGQGTQVTVSS”: the “polyreactivity (PSR sort gate)” value is listed as “high polyreactivity”.

As to “QVQLVESGGGLVQAGGSLRLSCDASGSTFSYYTMGWYRQAPGKERELVAAITGSGGRTYYADSVKGRFTISRDNAKNTVYLQMNSLKPEDSAVYYCAARLYTAADHYNYWGQGTQVTVSS”, the “polyreactivity (PSR sort gate)” value is recorded as “high polyreactivity”.

For “QVQLVESGGGLVQAGGSLRLSCAASGIFTRYAMGWYRQAPGKERELVAAISRGGGSTYYADSVKGRFTISRDNAKNTVYLQMNSLKPEDTAVYYCNTYKRPRSPGPKFYYWGQGTQVTVSS”, the “polyreactivity (PSR sort gate)” value is listed as “high polyreactivity”.

Take “QVQLVESGGGLVQAGGSLRLSCAASGGTFSFYAMGWYRQAPGKEREFVAAITASDGSTYYADSVKGRFTSSRDNAKNTVYLQMNSLKPEDTAVYYCAADAYGYKFNSWGQGTQVTVSS”: the “polyreactivity (PSR sort gate)” value was “low polyreactivity”.

With “QVQLVESGGGLVQAGGSLRLSCAASGITFGSYAMGWYRQAPGKERELVAAITWRGGSTFYADSVKGRFTISRDNAKNTVYLQMNSLKPDDTAVYYCAATLTKYLPRYYWGQGTQVTVSS”, the “polyreactivity (PSR sort gate)” value is given as “low polyreactivity”.

With “QVQLVESGGGLVQAGGSLRLSCAASGSTFTTNAMGWSRQAPGNERELVATISGGGSTYYADSVKGRFTISRDNAKNTVYLQMNSLKPEDTAVYDCATDVQVPGIGRSVYAYEYWGQGTQVTVSS”, the “polyreactivity (PSR sort gate)” value is reported as “low polyreactivity”.

On to “QVQLVESGGGLVQAGGSLRLSCAASGFIFRYYAMGWYRQAPGKERELVAAISSGGGTTYADSVKGRFTISRDNAKNTVYLQMNSLKPEDTAVYYCAAVSYYARYTYGYDYWGQGTQVTVSS”, for which the “polyreactivity (PSR sort gate)” value is given as “high polyreactivity”.

For “QVQLVESGGGLVQAGGSLRLSCAASGRISVFYAMGWYRQAPGKEMELGAAITRSGTTKYADSVKGRFTISRDNAKNTVYLQMNSLKPEDTAVYYCAARSVYYKFGYYYWGQGSQVTVSS”, the “polyreactivity (PSR sort gate)” value is given as “high polyreactivity”.

For “QVQLVESGGGLVQAGGSLRLSCAASGSTFRPYTMGWYRQAPGKERELVAAINRRGSSTYYADSVKGRFTISRDNAKNTVYLQMNSLKPEDTAVYYCNAVPGSRYGTYDYWGQGTQVTVSS”, the “polyreactivity (PSR sort gate)” value is “high polyreactivity”.

Source of the values: the nanobody polyreactivity screen of Harvey et al. (2022).
